Values belong to the molecule of their own block, whether it stands above or below them.
Experiments:
[1] = molecular target: CheC (Thermotoga maritima) (UniProt Q9X006); assay: ITC; details: cited from earlier work
[2] = molecular target: GST-CheD (B. subtilis) (UniProt P40404); assay: pull-down
[3] = molecular target: T1, 6xHis-McpC cytoplasmic fragment (wild type, unmodified) (B. subtilis, UniProt P54576 298-655); assay: pull-down
T1 sequence (looked up): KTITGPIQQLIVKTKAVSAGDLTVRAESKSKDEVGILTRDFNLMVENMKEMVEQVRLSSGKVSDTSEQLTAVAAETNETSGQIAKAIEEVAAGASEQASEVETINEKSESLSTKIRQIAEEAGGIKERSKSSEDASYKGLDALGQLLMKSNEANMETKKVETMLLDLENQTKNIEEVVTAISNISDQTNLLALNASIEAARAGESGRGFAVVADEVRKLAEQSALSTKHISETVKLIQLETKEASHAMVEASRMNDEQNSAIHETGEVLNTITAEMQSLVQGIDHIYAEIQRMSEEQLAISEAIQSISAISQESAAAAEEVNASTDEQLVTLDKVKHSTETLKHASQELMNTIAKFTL

Sequence of CheC (Thermotoga maritima) (Q9X006 whole entry): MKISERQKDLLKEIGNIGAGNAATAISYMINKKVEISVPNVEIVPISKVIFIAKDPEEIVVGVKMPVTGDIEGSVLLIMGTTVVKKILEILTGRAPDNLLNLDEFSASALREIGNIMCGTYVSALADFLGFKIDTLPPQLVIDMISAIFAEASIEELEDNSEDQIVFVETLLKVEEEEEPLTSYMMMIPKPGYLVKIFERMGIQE

Molecule: CheD (from UniProt Q9X005)
- Kd [1]: 1 µM

- Kd [2]: 117 µM
- percent of chemoreceptor bound [2]: 13.2%
Molecule: Deamidated (Q609E) McpC cytoplasmic chemoreceptor fragment (from UniProt P54576 1-655) (domain or fragment)

- Kd [3]: 202 µM
B1: GST-CheD (enzyme, B. subtilis, UniProt P40404 1-166, looked up)
chain: MSTTEAVVIKVGIADVKIARFPDTIRTSGLGSCVGLVLYDKEKQTAGLVHVMLPDSTLSKTAELNRAKYADTAVQTTIDMLIEAGCRKFALKAKLAGGSEMFKFKSTNDLMKIGPRNVLAIKEQLSLFNIPIISEDTGGSSGRTIEFEPKSCMLHIRTVKQGEKTI

— article PMC3480970 (Molecular microbiology, 2012)
